The results in this text go back to the Immune Epitope Database (IEDB).

Assay [1] concerns the target HLA-B*08:01. The experiment in a line: IEDB peptide-MHC binding, purified MHC/competitive/radioactivity; filed as Kd, often an IC50 or EC50 that approximates it; ≥ and ≤ were set here for values at or beyond the usual limits of such assays.
Assay [2] concerns the target HLA-B*18:01. The experiment in a line: IEDB peptide-MHC binding, purified MHC/direct/fluorescence; filed as Kd, often an IC50 or EC50 that approximates it; ≥ and ≤ were set here for values at or beyond the usual limits of such assays.
Assay [3] deals with HLA-A*68:02. In words: IEDB peptide-MHC binding, purified MHC/competitive/radioactivity; filed as Kd, often an IC50 or EC50 that approximates it; ≥ and ≤ were set here for values at or beyond the usual limits of such assays.
In assay [4] the target is HLA-A*02:02. The description is as above.
In assay [5] the target is HLA-A*02:06. The description is as above.
For assay [6], the target named is HLA-A*02:03. The assay is described as above.
The target of assay [7] is HLA-A*02:01. Described as above.
Assay [8] has as its target HLA-B*51:01. The experiment in a line: IEDB peptide-MHC binding, purified MHC/competitive/fluorescence; filed as Kd, often an IC50 or EC50 that approximates it; ≥ and ≤ were set here for values at or beyond the usual limits of such assays.
The target in assay [9] is HLA-B*51:01. In words: IEDB peptide-MHC binding, purified MHC/competitive/radioactivity; filed as Kd, often an IC50 or EC50 that approximates it; ≥ and ≤ were set here for values at or beyond the usual limits of such assays. The settings on record: source organism: Dengue virus 4 Philippines/H241/1956.
The target in assay [10] is HLA-A*32:01. Described as above.
For assay [11], the target named is HLA-B*15:01. The description is as above. The settings on record: source organism: Vaccinia virus WR.
In assay [12] the target is HLA-A*26:01. The assay is described as above.
Assay [13] addresses HLA-A*01:01. Described as above. The settings on record: source organism: Dengue virus 2 Jamaica/1409/1983.
The target in assay [14] is HLA-A*02:01. In words: IEDB peptide-MHC binding, purified MHC/direct/fluorescence; filed as Kd, often an IC50 or EC50 that approximates it; ≥ and ≤ were set here for values at or beyond the usual limits of such assays.
In assay [15] the target is HLA-A*03:01. The description is as above.
The target of assay [16] is HLA-B*18:01. In words: IEDB peptide-MHC binding, purified MHC/competitive/fluorescence; filed as Kd, often an IC50 or EC50 that approximates it; ≥ and ≤ were set here for values at or beyond the usual limits of such assays. The conditions noted are these: source organism: Hantavirus HPR/02-73.
The target in assay [17] is HLA-B*57:01. The assay is described as above. The conditions noted are these: source organism: Hantavirus HPR/02-73.
Assay [18] concerns the target HLA-A*26:01. Described as above. The conditions noted are these: source organism: Hantavirus HPR/02-73.
Assay [19] deals with HLA-B*27:03. The description is as above. The settings on record: source organism: Hantavirus HPR/02-73.
For assay [20], the target named is HLA-B*07:02. The experiment in a line: IEDB peptide-MHC binding, purified MHC/direct/fluorescence; filed as Kd, often an IC50 or EC50 that approximates it; ≥ and ≤ were set here for values at or beyond the usual limits of such assays. The conditions noted are these: source organism: Pseudomonas putida.
The target in assay [21] is HLA-A*31:01. The description is as above. The conditions noted are these: source organism: Pseudomonas putida.
For assay [22], the target named is HLA-A*11:01. The assay is described as above. The conditions noted are these: source organism: Pseudomonas putida.
In assay [23] the target is HLA-B*27:05. The description is as above. The settings on record: source organism: Pseudomonas putida.
Assay [24] addresses HLA-B*58:01. The assay is described as above. The conditions noted are these: source organism: Pseudomonas putida.
The target of assay [25] is HLA-A*01:01. Described as above. The conditions noted are these: source organism: Pseudomonas putida.
The target of assay [26] is HLA-B*08:01. The assay is described as above. The settings on record: source organism: Pseudomonas putida.
Assay [27] addresses HLA-B*40:01. Described as above. The conditions noted are these: source organism: Pseudomonas putida.
For assay [28], the target named is HLA-A*26:01. The description is as above. The conditions noted are these: source organism: Pseudomonas putida.
Assay [29] concerns the target HLA-B*15:01. The assay is described as above. The conditions noted are these: source organism: Pseudomonas putida.
Assay [30] addresses HLA-A*69:01. Described as above. The settings on record: source organism: Pseudomonas putida.
[31] abbreviates: source organism: Vaccinia virus WR.
Setting [32] is: source organism: Dengue virus 3 Martinique/1243/1999.
Where [33] appears, read: source organism: Trypanosoma cruzi.
[34] abbreviates: source organism: Lassa virus Josiah.
Setting [35] is: source organism: Human immunodeficiency virus type 1 (SF33 ISOLATE).
Setting [36] is: source organism: Dengue virus 2 Jamaica/1409/1983.
[37] abbreviates: source organism: Dengue virus 4 Philippines/H241/1956.
The mark [38] stands for this setting: source organism: Dengue virus 1 Singapore/S275/1990.
Where [39] appears, read: source organism: Pseudomonas putida.
The mark [40] stands for this setting: source organism: Vaccinia virus Copenhagen.

A value given as a limit tells only on which side of the number the result lay.

Regarding ELKLFNVTL, the Kd in assay [1] (setting [31]) came out at 4.68 nM.

In [2] (source organism: Listeria innocua), FPFGDVWNY showed a Kd of 1.4 nM. With ETPTWNRKEL, the Kd in assay [3] (setting [32]) amounted to 872 nM.

MSFSCIAIGI: the Kd in assay [3] (setting [32]) was determined as 5.17 nM. Regarding LVGLLSNAAS, the Kd in assay [4] (setting [33]) turned out to be 1720 nM; in [5] (setting [33]), 1330 nM; in assay [3] (setting [33]), 4310 nM; in [6] (setting [33]), 395 nM; in assay [7] (setting [33]), 11200 nM. As for MMKERSTIL, the dissociation constant (Kd) in assay [1] (setting [31]) was 34.9 nM.

As for QLQVTEREEV, the equilibrium dissociation constant (Kd) in assay [3] (source organism: Homo sapiens) was at least 60000 nM. In the case of IMTSYQYLII, in [7] (setting [34]), the dissociation constant Kd amounted to 1000 nM. For the sequence WLVLRINKAL, the Kd in [3] (source organism: Homo sapiens) came to 4450 nM. With GKKHMIAGVL, the equilibrium dissociation constant (Kd) in assay [1] (source organism: Dengue virus 3 Singapore/8120/1995) came to 11900 nM.

Take ALIRILQQL: the Kd in assay [4] (setting [35]) is 3.31 nM; in assay [5] (setting [35]), 8.2 nM; in assay [3] (setting [35]), at least 65300 nM; in assay [6] (setting [35]) it was 2.99 nM; in [7] (setting [35]), 28.1 nM. Regarding YLLPSRGPKL, the Kd in [7] (source organism: Hepatitis C virus subtype 2b) worked out at 646 nM. Regarding DTMTYKCPRI, the Kd in [3] (source organism: Dengue virus 1 Brazil/97-11/1997) was found to be 64 nM. Consider LPDTGSWGI, for which the Kd in assay [8] (source organism: Yersinia pestis Nepal516) is at least 20000 nM. As to MRGAKRMAIL, the equilibrium dissociation constant (Kd) in assay [1] (setting [36]) came to 54.2 nM. As for LLQYWSQEL, the Kd in assay [7] (source organism: HIV-1 M:B_MN) came out at 189 nM. WTLYAVATTI: the Kd in assay [3] (setting [37]) was found to be 10 nM.

As to LSIPPTAGIL, the Kd in assay [9] was determined as 9470 nM; in assay [1] (setting [37]) it was 2340 nM.

As to LIITKVFSF, the values for the dissociation constant Kd in assay [10] (setting [31]) and in assay [11] were 83.9 nM and 7.68 nM, respectively.

FIWFIFHFV: the Kd in [1] (source organism: Vaccinia virus) worked out at 3160 nM. For the sequence SSMRKTDWL, in [1] (setting [32]), the Kd came to 240 nM. As for TWLPVLLGSL, the Kd in assay [1] (setting [38]) came to 9430 nM.

Turning to RTVFFVLMML, the dissociation constant Kd in [3] (setting [37]) stood at 17.9 nM. In the case of RLTQSHPIL, the equilibrium dissociation constant (Kd) in [7] (setting [34]) is 1670 nM. As to SASSMINGV, in assay [3] (setting [32]), the dissociation constant (Kd) was found to be 28.9 nM.

For EVDSFSLGLL, the Kd in assay [12] (setting [38]) turned out to be 1930 nM; in [3] (setting [38]) it was 146 nM. Regarding ILNAMITKI, the dissociation constant Kd in [7] (source organism: Homo sapiens) was 95 nM. Consider LVGLVTFLL, for which the Kd in assay [7] (setting [34]) was 641 nM. Turning to FANYNFTLV, the Kd is 22.6 nM in assay [4] (setting [33]), 0.00585 nM in assay [5] (setting [33]), 0.0102 nM in assay [3] (setting [33]) and at least 78100 nM in [6] (setting [33]). IDKKGKVVGL: the Kd in [1] (source organism: Dengue virus 2 16681-PDK53) was 13700 nM. With MLLVLCAVQL, in assay [1] (setting [32]), the Kd stood at 5970 nM.

Turning to MTTEDMLAV, the equilibrium dissociation constant (Kd) was 2700 nM in assay [13], 7.01 nM in assay [5] (setting [36]), 623 nM in assay [12] (setting [36]) and 10.8 nM in assay [3] (setting [36]). In the case of SVMNFIPII, the dissociation constant (Kd) in assay [4] (setting [31]) came to 13.2 nM; in [5] (setting [31]) it was 2.83 nM; in assay [10] (setting [31]) it was 0.604 nM; in assay [6] (setting [31]), 6.26 nM.

Take SAKQLRTRI: the Kd in [1] (setting [31]) worked out at 201 nM. On to TSKKRSWPL, for which the Kd in assay [1] (setting [36]) was 5.82 nM. Regarding YILGFAIPI, the Kd in [14] (source organism: Juquitiba virus) is 0.3 nM; in assay [15] (source organism: Araucaria virus) it was at least 20000 nM; in assay [16], at least 20000 nM; in assay [17], at least 20000 nM; in assay [8] (source organism: Hantavirus HPR/02-73), at least 20000 nM; in [18], at least 20000 nM. In addition, the dissociation constant (Kd) in [19] was at least 20000 nM. Consider MVTHFDNTQV, for which the dissociation constant (Kd) in assay [3] (setting [37]) was determined as 9.99 nM.

Consider DLSNSMRDF, for which the dissociation constant (Kd) in assay [20], in [21], in assay [22], in assay [23], in [24] and in assay [25] was at least 20000 nM throughout. For the same sequence, the Kd was at least 20000 nM in assay [26]; at least 20000 nM in assay [27]; 4520 nM in assay [28]; at least 20000 nM in [29]; at least 20000 nM in [14] (setting [39]); at least 20000 nM in assay [15] (setting [39]). In [30], the Kd is at least 20000 nM.

GLYNFATCGL: the Kd in [4] (setting [34]) was 5.12 nM; in assay [5] (setting [34]), 218 nM; in assay [3] (setting [34]), at least 5000 nM; in assay [6] (setting [34]), 2.27 nM. In the case of SPYNFFKRI, the Kd in assay [1] (setting [31]) was determined as 422 nM.

On to TVTGGIFLFL, for which the dissociation constant Kd in [3] (setting [36]) came out at 53.6 nM. Regarding KEVSGVKGF, the Kd in [2] (source organism: Yellow fever virus) amounted to 500 nM. As to GASRRSWPL, the Kd in [1] (source organism: Dengue virus 4 Dominica/814669/1981) is 14 nM. As to EARKTFVDL, the Kd in [1] (setting [36]) was 570 nM. NPQTKQMAF: the equilibrium dissociation constant (Kd) in assay [1] (setting [31]) stood at 14.3 nM. For the sequence YLSTERDHV, the Kd in [7] (source organism: Variola virus) came out at 100 nM.

On to FVKRKKLDI, for which, in assay [1] (setting [31]), the Kd turned out to be 2.98 nM. As for LGRNKRPRL, in assay [1] (source organism: Dengue virus 3 Sri Lanka/1266/2000), the dissociation constant (Kd) came to 42.7 nM. Regarding PNTNRAWNSL, in [10] (setting [36]), the Kd came out at 1560 nM.

On to LAMNSVFTF, for which the Kd in assay [10] (setting [40]) was determined as 16.1 nM. Consider LTFIRSTMPL, for which the results for the Kd in [9], in assay [12] (setting [37]) and in [3] (setting [37]) were 1520 nM, 7410 nM and 19.8 nM, respectively. On to TLWAIINTI, for which the dissociation constant (Kd) in assay [10] (setting [31]) was 1.52 nM. ATAGLHLGF: in [10] (setting [40]), the Kd was 1.69 nM.
